From US20090280473A1

Tests used:
Test in all cases: cell-based or functional assay
[1] = target: Semliki Forest virus E1 fusion protein, low pH-induced trimeric form (full-length viral E1 of cell-b (Semliki Forest virus) (UniProt P03315))
[2] = target: Dengue virus 2 (DV2, strain New Guinea C) E fusion protein (Dengue virus 2) (UniProt P14340)
[3] = target: Dengue virus 1 (DV1, strain Western Pacific) E fusion protein (Dengue virus 1) (UniProt P17763)

Substance: DIII (SFV E1 domain III, Met + residues 291-383) (from UniProt P03315 1106-1198)
- percent inhibition of SFV fusion in the FIA at ˜80 µM [1]: 60 % inhibition

Substance: DIIIS (SFV E1 domain III plus stem, Met + residues 291-412) (from UniProt P03315 1106-1227)
- inhibition of SFV fusion with BHK cells, fusion-infection assay (FIA) [1]: 6 µM

Substance: DV2DIIIH1 (dengue virus 2 E domain III plus helix 1 of the stem, residues 296-415) (from UniProt P14340 576-695)
- percent inhibition of DV2 fusion in the FIA at 50 µM [2]: 70 % inhibition
- percent inhibition of DV1 fusion in the FIA at 50 µM [3]: 70 % inhibition
